Several values for one entry are separate records, joined by “and”; a condition that tells them apart may be missing. Identical values can stand only once.
Key:
[1] = target: hMPV F design M-104 (human metapneumovirus) (UniProt Q6WB98); test: BLI; antibody on Protein A sensor; F protein heated 1 h at 55 C
[2] = target: hMPV F 115-BV (human metapneumovirus) (UniProt Q6WB98); test: BLI; antibody on Protein A sensor, F protein in solution; RT, not heated
[3] = target: hMPV F design M-104 (human metapneumovirus) (UniProt Q6WB98); test: as above
[4] = target: postfusion RSV A2 F (respiratory syncytial virus A2) (UniProt P03420); test: BLI; antibody on Protein A sensor; F protein heated 1 h at 60 C
[5] = target: RSV F DS-Cav1 (respiratory syncytial virus); test: BLI; antibody on Protein A sensor, F protein in solution; RT, not heated
[6] = target: RSV F design R-1b (respiratory syncytial virus (A2 strain)); test: as above
[7] = target: postfusion RSV A2 F (respiratory syncytial virus A2) (UniProt P03420); test: as above
[8] = target: RSV F DS-Cav1 (respiratory syncytial virus); test: BLI; antibody on Protein A sensor; F protein heated 1 h at 55 C
[9] = target: RSV F design R-1b (respiratory syncytial virus (A2 strain)); test: as above
[10] = target: RSV F DS-Cav1 (respiratory syncytial virus); test: BLI; antibody on Protein A sensor; F protein heated 1 h at 60 C

Substance | kon [1] | kon [2] | kon [3] | kon [4] | Kd [5] | kon [5] | Kd [6] | koff [6] | kon [6] | kon [7] | kon [8] | Kd [9] | koff [9] | kon [9] | kon [10]
antibody MPE8 | 36600 M⁻¹ s⁻¹ and 21700 M⁻¹ s⁻¹ and 25100 M⁻¹ s⁻¹ | 14500 M⁻¹ s⁻¹ and 15200 M⁻¹ s⁻¹ and 10900 M⁻¹ s⁻¹ | 40100 M⁻¹ s⁻¹ and 32400 M⁻¹ s⁻¹ and 42100 M⁻¹ s⁻¹ |  |  |  |  |  |  |  |  |  |  |  | 
antibody 131-2A |  |  |  | 522000 M⁻¹ s⁻¹ and 482000 M⁻¹ s⁻¹ and 452000 M⁻¹ s⁻¹ | 133 nM and 34.4 nM and 17.4 nM | 8290 M⁻¹ s⁻¹ and 9190 M⁻¹ s⁻¹ and 17600 M⁻¹ s⁻¹ | 6.47 nM and 7.43 nM and 11.9 nM | 0.00031 s⁻¹ and 0.000353 s⁻¹ and 0.0004 s⁻¹ | 47900 M⁻¹ s⁻¹ and 47500 M⁻¹ s⁻¹ and 33700 M⁻¹ s⁻¹ | 400000 M⁻¹ s⁻¹ and 409000 M⁻¹ s⁻¹ and 485000 M⁻¹ s⁻¹ |  |  |  |  | 
antibody AM14 |  |  |  |  |  | 161000 M⁻¹ s⁻¹ and 204000 M⁻¹ s⁻¹ and 181000 M⁻¹ s⁻¹ | 0.497 nM and 0.489 nM and 0.568 nM | 0.000111 s⁻¹ and 0.000124 s⁻¹ and 0.000101 s⁻¹ | 203000 M⁻¹ s⁻¹ and 227000 M⁻¹ s⁻¹ and 219000 M⁻¹ s⁻¹ |  | 50300 M⁻¹ s⁻¹ and 58500 M⁻¹ s⁻¹ and 50100 M⁻¹ s⁻¹ | 0.134 nM and 0.133 nM | 1.15e-05 s⁻¹ and 1.31e-05 s⁻¹ | 88700 M⁻¹ s⁻¹ and 86300 M⁻¹ s⁻¹ and 99100 M⁻¹ s⁻¹ | 
antibody D25 |  |  |  |  |  | 121000 M⁻¹ s⁻¹ and 187000 M⁻¹ s⁻¹ and 149000 M⁻¹ s⁻¹ |  |  | 179000 M⁻¹ s⁻¹ and 144000 M⁻¹ s⁻¹ and 151000 M⁻¹ s⁻¹ |  | 213000 M⁻¹ s⁻¹ and 160000 M⁻¹ s⁻¹ and 142000 M⁻¹ s⁻¹ |  |  | 156000 M⁻¹ s⁻¹ and 120000 M⁻¹ s⁻¹ and 121000 M⁻¹ s⁻¹ | 115000 M⁻¹ s⁻¹ and 135000 M⁻¹ s⁻¹ and 132000 M⁻¹ s⁻¹

From patent US20240226274A1
